37 proteins from patent publication US20210230570 can be followed below.

First the molecules themselves.
B1: FIXa-Y155F/K247N/N249S/R318Y/R338E/T343R (protein)
chain 1: YNSGKLEEFVQGNLERECMEEKCSFEEAREVFENTERTTEFWKQYVDGDQCESNPCLNGGSCKDDINSYECWCPFGFEGKNCELDVTCNIKNGRCEQFCKNSADNKVVCSCTEGYRLAENQKSCEPAVPFPCGRVSVSQTSKLTR
chain 2: VVGGEDAKPGQFPWQVVLNGKVDAFCGGSIVNEKWIVTAAHCVETGVKITVVAGEHNIEETEHTEQNRSVIRIIPHHNYNAAINKYNHDIALLELDEPLVLNSYVTPICIADKEYTNIFLKFGSGYVSGWGRVFHKGYSALVLQYLRVPLVDRATCLESTKFRIYNNMFCAGFHEGGRDSCQGDSGGPHVTEVEGTSFLTGIISWGEECAMKGKYGIYTKVSRYVNWIKEKTKLT
B2: FIXa-R318Y/R338E/T343R/R403E (protein)
chain 1: B1 chain 1
chain 2: B1 chain 2 with N67K, S69N, R223E
B3: FIXa-Y155F/K247N/N249S/R318Y/R338E/T343R/R403E/E410N (protein)
chain 1: B1 chain 1
chain 2: B1 chain 2 with R223E, E230N
B4: FIXa-Y155F/R318Y/T343R/E410N (protein)
chain 1: B1 chain 1
chain 2: B1 chain 2 with N67K, S69N, E158R, E230N
B5: FIXa-K247N/N249S/R318Y/R338E/T343R (protein)
chain 1: B1 chain 1
chain 2: B1 chain 2
B6: FIXa-R318Y/R338E/T343R/R403E/E410S (protein)
chain 1: B1 chain 1
chain 2: B1 chain 2 with N67K, S69N, R223E, E230S
B7: FIXa-Y155F/R338E/T343R/R403E/E410S (protein)
chain 1: B1 chain 1
chain 2: B1 chain 2 with N67K, S69N, Y138R, R223E, E230S
B8: FIXa-Y155F/K247N/N249S/R338E/R403E/E410N (protein)
chain 1: B1 chain 1
chain 2: B1 chain 2 with Y138R, R163T, R223E, E230N
B9: FIXa-Y155F/R338E/T343R/R403E/E410N (protein)
chain 1: B1 chain 1
chain 2: B1 chain 2 with N67K, S69N, Y138R, R223E, E230N
B10: FIXa-R338E/T343R/R403E/E410N (protein)
chain 1: B1 chain 1
chain 2: B1 chain 2 with N67K, S69N, Y138R, R223E, E230N
B11: FIXa-K228N/I251S/R318Y/R338E/R403E/E410N (protein)
chain 1: B1 chain 1
chain 2: B1 chain 2 with K48N, N67K, S69N, I71S, R163T, R223E, E230N
B12: FIXa-Y155F/N260S/R338E/T343R/R403E (protein)
chain 1: B1 chain 1
chain 2: B1 chain 2 with N67K, S69N, N80S, Y138R, R223E
B13: FIXa-K228N/R318Y/R338E/T343R/R403E/E410N (protein)
chain 1: B1 chain 1
chain 2: B1 chain 2 with K48N, N67K, S69N, R223E, E230N
B14: FIXa-Y155F/K247N/N249S/R318Y/R338E/T343R/R403E (protein)
chain 1: B1 chain 1
chain 2: B1 chain 2 with R223E
B15: FIXa-K228N/K247N/N249S/R318Y/R338E/T343R/R403E/E410N (protein)
chain 1: B1 chain 1
chain 2: B1 chain 2 with K48N, R223E, E230N
B16: FIXa-Y155F/K247N/N249S/T343R/R403E (protein)
chain 1: B1 chain 1
chain 2: B1 chain 2 with Y138R, E158R, R223E
B17: FIXa-R318Y/T343R/E410N (protein)
chain 1: B1 chain 1
chain 2: B1 chain 2 with N67K, S69N, E158R, E230N
B18: FIXa-Y155F/I251S/R338E/T343R/R403E (protein)
chain 1: B1 chain 1
chain 2: B1 chain 2 with N67K, S69N, I71S, Y138R, R223E
B19: FIXa-N260S/R318Y/R338E/T343R/R403E/E410N (protein)
chain 1: B1 chain 1
chain 2: B1 chain 2 with N67K, S69N, N80S, R223E, E230N
B20: FIXa-Y155F/R318Y/R338E/T343R/E410N (protein)
chain 1: B1 chain 1
chain 2: B1 chain 2 with N67K, S69N, E230N
B21: FIXa-K247N/N249S/R338E/R403E/E410N (protein)
chain 1: B1 chain 1
chain 2: B1 chain 2 with Y138R, R163T, R223E, E230N
B22: FIXa-Y155F/R318Y/T343R/R403E/E410N (protein)
chain 1: B1 chain 1
chain 2: B1 chain 2 with N67K, S69N, E158R, R223E, E230N
B23: FIXa-Y155F/K247N/N249S/R403E/E410N (protein)
chain 1: B1 chain 1
chain 2: B1 chain 2 with Y138R, E158R, R163T, R223E, E230N
B24: FIXa-Y155F/R338E/T343R/E410N (protein)
chain 1: B1 chain 1
chain 2: B1 chain 2 with N67K, S69N, Y138R, E230N
B25: FIXa-Y155F/R338E/T343R/R403E (protein)
chain 1: B1 chain 1
chain 2: B1 chain 2 with N67K, S69N, Y138R, R223E
B26: FIXa-D104N/K106S/R318Y/R338E/T343R/R403E/E410N (protein)
chain 1: B1 chain 1 with D104N, K106S
chain 2: B1 chain 2 with N67K, S69N, R223E, E230N
B27: FIXa-K228N/K247N/N249S/R318Y/T343R/R403E/E410N (protein)
chain 1: B1 chain 1
chain 2: B1 chain 2 with K48N, E158R, R223E, E230N
B28: FIXa-K228N/K247N/N249S/R318Y/R338E/T343R/E410N (protein)
chain 1: B1 chain 1
chain 2: B1 chain 2 with K48N, E230N
B29: FIXa-Y155F/K247N/N249S/T343R/E410N (protein)
chain 1: B1 chain 1
chain 2: B1 chain 2 with Y138R, E158R, E230N
B30: FIXa-Y155F/R318Y/R338E/T343R/R403E (protein)
chain 1: B1 chain 1
chain 2: B1 chain 2 with N67K, S69N, R223E
B31: FIXa-R338E/T343R/R403E (protein)
chain 1: B1 chain 1
chain 2: B1 chain 2 with N67K, S69N, Y138R, R223E
B32: FIXa-Y155F/N260S/R318Y/R338E/T343R/R403E/E410N (protein)
chain 1: B1 chain 1
chain 2: B1 chain 2 with N67K, S69N, N80S, R223E, E230N
B33: FIXa-K228N/K247N/N249S/R318Y/R338E/T343R/R403E (protein)
chain 1: B1 chain 1
chain 2: B1 chain 2 with K48N, R223E
B34: FIXa-Y155F/K228N/K247N/N249S/R318Y/R338E/T343R/R403E/E410N (protein)
chain 1: B1 chain 1
chain 2: B1 chain 2 with K48N, R223E, E230N
B35: FIXa-Y155F/R318Y/R338E/T343R/R403E/E410N (protein)
chain 1: B1 chain 1
chain 2: B1 chain 2 with N67K, S69N, R223E, E230N
B36: FIXa-Y155F/K228N/I251S/R318Y/R338E/R403E/E410N (protein)
chain 1: B1 chain 1
chain 2: B1 chain 2 with K48N, N67K, S69N, I71S, R163T, R223E, E230N
B37: FIXa-K247N/N249S/R318Y/R338E/T343R/R403E (protein)
chain 1: B1 chain 1
chain 2: B1 chain 2 with R223E

Where a chain is given by its changes, count along the chain named. In names and notes the source's numbering stands.

In the series the target is Factor X (FX), P00742.
Sequence of Factor X (FX), P00742 (P00742 whole entry, looked up): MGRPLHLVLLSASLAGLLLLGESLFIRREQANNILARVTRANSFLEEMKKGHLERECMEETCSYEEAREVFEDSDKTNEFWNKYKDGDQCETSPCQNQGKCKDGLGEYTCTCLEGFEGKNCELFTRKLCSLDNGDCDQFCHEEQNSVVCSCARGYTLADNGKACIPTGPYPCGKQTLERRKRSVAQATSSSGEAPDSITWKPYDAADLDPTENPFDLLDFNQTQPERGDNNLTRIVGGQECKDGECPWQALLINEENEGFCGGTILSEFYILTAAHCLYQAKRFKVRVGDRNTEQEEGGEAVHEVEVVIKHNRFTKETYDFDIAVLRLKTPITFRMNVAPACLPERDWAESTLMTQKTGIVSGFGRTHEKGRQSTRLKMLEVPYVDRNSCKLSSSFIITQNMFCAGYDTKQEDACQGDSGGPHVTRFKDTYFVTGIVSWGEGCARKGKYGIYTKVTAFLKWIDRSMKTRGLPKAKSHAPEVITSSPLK
B1: the kcat stood at 8.5 s⁻¹ and the kcat/KM is 3.6e+08 M⁻¹ s⁻¹. Take B2: the KM was found to be 0.0443 µM and the kcat of FX activation by FIXa in the Xase complex (FVIIIa, PC/PS vesicles, Ca2+) was 6.7 s⁻¹.

As for B3, the KM was 0.0257 µM and the kcat of FX activation by FIXa in the Xase complex (FVIIIa, PC/PS vesicles, Ca2+) was found to be 9.7 s⁻¹.

For B4, the kcat (s^-1) for activation of FX by FIXa in the Xase complex (FVIIIa, PC/PS vesicles, Ca2+), fluorogenic Spectrafluor FXa read-out worked out at 5 s⁻¹ and the kcat/KM was determined as 1.5e+08 M⁻¹ s⁻¹.

Turning to B5, the kcat was 8 s⁻¹ and the kcat/KM was 3.9e+08 M⁻¹ s⁻¹. For the protein B6, the kcat came to 7.6 s⁻¹.

In the case of B7, the kcat was determined as 6.8 s⁻¹.

As to B8, the KM is 0.0487 µM and the kcat of FX activation by FIXa in the Xase complex (FVIIIa, PC/PS vesicles, Ca2+) was 5 s⁻¹. In the case of B9, the KM came out at 0.0259 µM and the kcat of FX activation by FIXa in the Xase complex (FVIIIa, PC/PS vesicles, Ca2+) was found to be 5.7 s⁻¹.

With B10, the KM amounted to 0.0347 µM and the kcat of FX activation by FIXa in the Xase complex (FVIIIa, PC/PS vesicles, Ca2+) turned out to be 9.8 s⁻¹. On the same counts, the results for B11 are 0.0364 µM and 7.5 s⁻¹.

For the protein B12, the kcat stood at 6.4 s⁻¹. Consider B13, for which the kcat (s^-1) for activation of FX by FIXa in the Xase complex (FVIIIa, PC/PS vesicles, Ca2+), fluorogenic Spectrafluor FXa read-out came out at 10.5 s⁻¹ and the kcat/KM is 2.7e+08 M⁻¹ s⁻¹. Consider B14, for which the kcat was determined as 10.6 s⁻¹.

With B15, the catalytic constant (kcat) came out at 9.9 s⁻¹. In the case of B16, the kcat came out at 4.7 s⁻¹. In the case of B17, the kcat (s^-1) for activation of FX by FIXa in the Xase complex (FVIIIa, PC/PS vesicles, Ca2+), fluorogenic Spectrafluor FXa read-out amounted to 3.2 s⁻¹ and the kcat/KM turned out to be 6.2e+07 M⁻¹ s⁻¹. Take B18: the kcat worked out at 5.9 s⁻¹. Regarding B19, the Michaelis-Menten constant (KM) is 0.0321 µM and the kcat of FX activation by FIXa in the Xase complex (FVIIIa, PC/PS vesicles, Ca2+) was 8.9 s⁻¹. With B20, the KM came to 0.0256 µM and the kcat of FX activation by FIXa in the Xase complex (FVIIIa, PC/PS vesicles, Ca2+) was 9.2 s⁻¹. For B21, in that order: 0.025 µM and 4.8 s⁻¹. As to B22, the KM stood at 0.034 µM and the kcat of FX activation by FIXa in the Xase complex (FVIIIa, PC/PS vesicles, Ca2+) is 8.8 s⁻¹.

B23: the kcat stood at 2.7 s⁻¹ and the kcat/KM is 2.4e+07 M⁻¹ s⁻¹. Regarding B24, the kcat amounted to 6 s⁻¹ and the kcat/KM came to 3.5e+08 M⁻¹ s⁻¹.

For the protein B25, the kcat amounted to 5.2 s⁻¹. B26: the KM turned out to be 0.0266 µM and the kcat of FX activation by FIXa in the Xase complex (FVIIIa, PC/PS vesicles, Ca2+) turned out to be 5.7 s⁻¹. Take B27: the kcat (s^-1) for activation of FX by FIXa in the Xase complex (FVIIIa, PC/PS vesicles, Ca2+), fluorogenic Spectrafluor FXa read-out was 8.1 s⁻¹ and the kcat/KM is 7.1e+07 M⁻¹ s⁻¹. In the case of B28, the kcat (s^-1) for activation of FX by FIXa in the Xase complex (FVIIIa, PC/PS vesicles, Ca2+), fluorogenic Spectrafluor FXa read-out is 4.7 s⁻¹ and the kcat/KM amounted to 1.3e+08 M⁻¹ s⁻¹.

Regarding B29, the kcat was 7.9 s⁻¹ and the kcat/KM was determined as 2.8e+08 M⁻¹ s⁻¹. In the case of B30, the KM turned out to be 0.034 µM and the kcat of FX activation by FIXa in the Xase complex (FVIIIa, PC/PS vesicles, Ca2+) turned out to be 8.2 s⁻¹. Turning to B31, the kcat came out at 6.9 s⁻¹. Turning to B32, the kcat was determined as 5.8 s⁻¹.

With B33, the kcat (s^-1) for activation of FX by FIXa in the Xase complex (FVIIIa, PC/PS vesicles, Ca2+), fluorogenic Spectrafluor FXa read-out was 10.9 s⁻¹ and the kcat/KM amounted to 2.9e+08 M⁻¹ s⁻¹. Take B34: the turnover number (kcat) was 9.4 s⁻¹. On to B35, for which the KM was determined as 0.0272 µM and the kcat of FX activation by FIXa in the Xase complex (FVIIIa, PC/PS vesicles, Ca2+) worked out at 7.8 s⁻¹. In the case of B36, the KM came to 0.0393 µM and the kcat of FX activation by FIXa in the Xase complex (FVIIIa, PC/PS vesicles, Ca2+) came to 5.3 s⁻¹. B37: the kcat is 9.2 s⁻¹.

A word on the kcat: it is the number of substrate molecules converted per active site and unit of time at saturation. As a reminder, the kcat/KM is the second-order rate constant that governs catalysis at low substrate concentration. In general, KM refers to the concentration of substrate that gives half-maximal velocity.
